Assay results taken from patent US20030133935A1 (published 2003).

Biological target: human tumor necrosis factor-α (TNFα) (human, UniProt P01375 77-233)
Experiment: cell-based or functional assay

human tumor necrosis factor-α (TNFα), sequence (P01375 77-233): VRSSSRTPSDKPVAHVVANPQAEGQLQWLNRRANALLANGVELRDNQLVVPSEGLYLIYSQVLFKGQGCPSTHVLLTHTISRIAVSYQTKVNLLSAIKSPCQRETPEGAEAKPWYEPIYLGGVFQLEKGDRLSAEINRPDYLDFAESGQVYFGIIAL

Binder | IC50: concentration of fusion protein required to inhibit 2 ng/ml (39.2 pM) TNFα by 50%, WEHI 164 cytotoxicity assay | IL-6 secreted by FS-4 fibroblasts (ng/ml), rhTNF 0.3 ng/ml, antibody 4 µg/ml (no antibody: 1.36) | IL-6 secreted by FS-4 fibroblasts (ng/ml), rhTNF 1.5 ng/ml, antibody 4 µg/ml (no antibody: 2.00) | IL-6 secreted by FS-4 fibroblasts (ng/ml), rhTNF 7.5 ng/ml, antibody 4 µg/ml (no antibody: 2.56)
p55-sf2 TNF receptor/IgG1 fusion protein (Fc fusion) QVCPQGKYIHPQNNSICCTKCHKGTYLYNDCPGPGQDTDCRECESGSFTASENHLRHCLSCSKCRKEMGQVEISSCTVDRDTVCGCRKNQYRHYWSENLFQCFNCSLCLNGTVHLSCQEKQNTVCTCHAGFFLRENECVSCSNCKKSLECTKLCLPQIGTLVTVSS | 70 pM |  |  | 
chimeric mouse/human IgG1 anti-platelet mAb (7E3) (antibody, INN chains, looked up, V domains shown, IgG1) VH: EVQLQQSGTVLARPGASVKMSCEASGYTFTNYWMHWVKQRPGQGLEWIGAIYPGNSDTSYIQKFKGKAKLTAVTSTTSVYMELSSLTNEDSAVYYCTLYDGYYVFAYWGQGTLVTVSA VL: EIVLTQSPVTLSVTPGDSVSLSCRASRDISNNLHWFQQTSHESPRLLIKYASQSMSGIPSRFSGSGSGTDFTLSINSVETEDFGMYFCQQTNSWPYTFGGGTKLEIK |  | 1.6 ng/mL | 1.96 ng/mL | 2.16 ng/mL
